“Also recorded” adds a separate entry of the source.
Legend:
[1] = biological target: CHIKV nsP2 cysteine protease (Chikungunya virus, UniProt Q8JUX6, A1139V/C1177Y/S1178N)
[2] = biological target: T1, VEEV nsP2 cysteine protease (Venezuelan equine encephalitis virus, UniProt P27282)
[3] = biological target: WEEV nsP2 cysteine protease (Western equine encephalitis virus, UniProt P13896)
[4] = biological target: T1, VEEV nsP2 cysteine protease; settings: pH 7
[5] = biological target: EEEV nsP2 cysteine protease (Eastern equine encephalitis virus, UniProt Q4QXJ8); type: biochemical
ZIKV ns2B-ns3 protease = ZIKV ns2B-ns3 protease (Zika virus, UniProt A0A024B7W1, C1582S/C1645S/R1467A/R1531G); type: biochemical
[6] = biological target: VEEV nsP2 protease cleavage of TRIM14 (Venezuelan equine encephalitis virus, UniProt P27282); type: cell-based
VEEV = type: cell-based, Venezuelan equine encephalitis virus (VEEV)

VEEV nsP2 protease cleavage of TRIM14, sequence (P27282 536-1329 limits assumed): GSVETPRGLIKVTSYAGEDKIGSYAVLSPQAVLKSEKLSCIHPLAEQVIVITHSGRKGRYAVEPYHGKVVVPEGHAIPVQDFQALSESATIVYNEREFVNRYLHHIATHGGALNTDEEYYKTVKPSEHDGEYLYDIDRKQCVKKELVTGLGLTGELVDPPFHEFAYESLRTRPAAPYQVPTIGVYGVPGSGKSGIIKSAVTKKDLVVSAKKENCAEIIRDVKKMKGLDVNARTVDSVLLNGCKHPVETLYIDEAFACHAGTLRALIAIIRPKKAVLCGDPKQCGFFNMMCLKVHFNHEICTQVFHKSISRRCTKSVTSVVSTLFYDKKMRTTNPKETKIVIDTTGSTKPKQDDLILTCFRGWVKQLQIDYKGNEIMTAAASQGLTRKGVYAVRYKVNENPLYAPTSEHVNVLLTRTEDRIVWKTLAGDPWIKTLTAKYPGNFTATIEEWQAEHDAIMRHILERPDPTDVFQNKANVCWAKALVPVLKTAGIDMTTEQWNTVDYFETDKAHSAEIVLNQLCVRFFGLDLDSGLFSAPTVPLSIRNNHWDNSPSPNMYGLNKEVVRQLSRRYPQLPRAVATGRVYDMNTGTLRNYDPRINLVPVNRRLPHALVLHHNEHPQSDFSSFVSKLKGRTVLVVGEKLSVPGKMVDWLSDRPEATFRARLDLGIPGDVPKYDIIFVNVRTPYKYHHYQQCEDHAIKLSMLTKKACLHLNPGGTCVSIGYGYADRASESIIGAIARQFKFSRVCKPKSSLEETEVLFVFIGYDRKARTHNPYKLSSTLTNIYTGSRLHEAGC

Compound: CFP-TRIM14-YFP (SEQ ID NO: 4): CFP-YFP FRET substrate, 25 residues of human TRIM14 DCFATGRHYWEVDVQEAGA↓GWWVGA (DCFATGRHYWEVDVQEAGAGWWVGA)
- Extent of cleavage of TRIM14 substrate by CHIKV nsP2 protease (SDS-PAGE) [1]: did not show evidence of significant cleavage
- Proteases cutting the substrate: VEEV nsP2 cysteine protease [2]: VEEV nsP2 cysteine protease
- Extent of cleavage of TRIM14 substrate by WEEV nsP2 protease (SDS-PAGE) [3]: did not show significant amounts of cleavage
- Km [4]: 21 ± 2 µM
- Vmax [4]: 0.056 ± 0.002 U/mg
- Extent of cleavage of TRIM14 substrate by EEEV nsP2 protease (SDS-PAGE) [5]: did not show significant amounts of cleavage

Compound: CFP-SFRP2-YFP: Uncleavable control CFP-YFP substrate, 34 residues MLQGPGSLLLLFLASHCCLGSARGLFLFGQPDFS ({CFP}-MLQGPGSLLLLFLASHCCLGSARGLFLFGQPDFS-{YFP}; cysteine pairing not given here)
- Proteases cutting the substrate: ZIKV ns2B-ns3 protease (ZIKV ns2B-ns3 protease): Control, not cleaved by ZIKV

Compound: CCCNC(=O)[C@H]1O[C@@H]1C(=O)N[C@H](C(=O)N1CCC[C@H]1C(=O)OC)[C@@H](C)CC [CA074 methyl ester]
- TRIM14 cleavage product (CP) in infected cell lysates (immunoblot) [6]: halted; also recorded: absent; also recorded: no longer present
- VEEV titers / viral replication (plaque assays) (VEEV): halted viral replication; also recorded: decreased significantly

Compound: CFP-SFRP4-YFP: Uncleavable control CFP-YFP substrate, 34 residues MFLSILVALCLWLHLALGVRGAPCEAVRIPMCRH ({CFP}-MFLSILVALCLWLHLALGVRGAPCEAVRIPMCRH-{YFP}; cysteine pairing not given here)
- Proteases cutting the substrate: ZIKV ns2B-ns3 protease (ZIKV ns2B-ns3 protease): Control, not cleaved by ZIKV

Compound: CFP-NT5M-YFP: CFP-YFP substrate, 34-residue human NT5M sequence MIRLGGWCARRLCSAAVPAGRR↓GAAGGLGLAGGR ({CFP}-MIRLGGWCARRLCSAAVPAGRRGAAGGLGLAGGR-{YFP}; cysteine pairing not given here)
- Proteases cutting the substrate: ZIKV ns2B-ns3 protease (ZIKV ns2B-ns3 protease): cleavage; also recorded: ZIKV ns2B-ns3 protease

Compound: CFP-FOXG1-YFP: CFP-YFP substrate, 21-residue human FOXG1 sequence RSTTSRAKLAFKR↓GARLTSTG ({CFP}-RSTTSRAKLAFKRGARLTSTG-{YFP})
- Proteases cutting the substrate: ZIKV ns2B-ns3 protease (ZIKV ns2B-ns3 protease): cleavage; also recorded: ZIKV ns2B-ns3 protease

Compound: CFP-SFRP1-YFP: CFP-YFP substrate, 25-residue human SFRP1 sequence MGIGRSEGGRR↓GAALGVLLALGAAL ({CFP}-MGIGRSEGGRRGAALGVLLALGAAL-{YFP})
- Proteases cutting the substrate: ZIKV ns2B-ns3 protease (ZIKV ns2B-ns3 protease): cleavage; also recorded: ZIKV ns2B-ns3 protease
